This note sets out measurements from the RNAGym collection of RNA variant scans (doi:10.7554/elife.90254).

B1: OR4K15 (parent)
chain: GUUAACGGUCAUAGGCCAUGGAAACUAGGAGCACCAUUUCGCUGCCAGUGAAGAAAUGAACAAAGAAAAUCUGGGCCAGGCAGGCAUCAAAAGAAAUAGUCUUGCGCUCAACCAGAAAGUCUGUAAUCAUUUUAAGGGUA

This data set covers variants of B1. As to the kind of experiment: self-cleavage, relative activity (ratio to wild type); higher = more cleavage; in vitro, sequencing; the parent is a self-cleaving ribozyme.
Regarding GUUAACGGUCAUAGGCCAUGGAAACUAGGAGCACCAUUUCGCUGCCAGUGAAGAAAUGAACAGAGAAAAUCUGGGCCAGGCAGGCAUCAAAAGAAAUAGUCUUGCGCUCAACCAGAAAGUCUGUAAUCAUCUUAAGGGUA [A63G U131C], the self-cleavage was 1.2.

Regarding GUUAACGGUCAUAGGCCAUGGAAACUAGGAGCACCAUUUCGCUGCCAGUGAAGAAAUGAACAGAGAAAAUCUGGGCCAGGCAGGCAUCAAAAGAAAUAGUCUUGCGCUCAACCAGAAAGUCUGUAAUCAUAUUAAGGGUA [A63G U131A], the self-cleavage amounted to 0.45.

Consider GUUAACGGUCAUAGGCCAUGGAAACUAGGAGCACCAUUUCGCUGCCAGUGAAGAAAUGAACAGAGAAAAUCUGGGCCAGGCAGGCAUCAAAAGAAAUAGUCUUGCGCUCAACCAGAAAGUCUGUAAUCAUUUUAGGGGUA [A63G A135G], for which the self-cleavage was found to be 1.35.

For GUUAACGGUCAUAGGCCAUGGAAACUAGGAGCACCAUUUCGCUGCCAGUGAAGAAAUGAACAGAGAAAAUCUGGGCCAGGCAGGCAUCAAAAGAAAUAGUCUUGCGCUCAACCAGAAAGUCUGUAAUCAUUUUAUGGGUA [A63G A135U], the self-cleavage came out at 0.04.

On to GUUAACGGUCAUAGGCCAUGGAAACUAGGAGCACCAUUUCGCUGCCAGUGAAGAAAUGAACAGAGAAAAUCUGGGCCAGGCAGGCAUCAAAAGAAAUAGUCUUGCGCUCAACCAGAACGUCUGUAAUCAUUUUAAGGGUA [A63G A118C], for which the self-cleavage amounted to 1.42.

Consider GUUAACGGUCAUAGGCCAUGGAAACUAGGAGCACCAUUUCGCUGCCAGUGAAGAAAUGAACAGAGAAAAUCUGGGCCAGGCAGGCAUCAAAAGAAAUAGUCUUGCGCUCAACCAGAAAGUCUGAAAUCAUUUUAAGGGUA [A63G U124A], for which the self-cleavage stood at 0.72.

As to GUUAACGGUCAUAGGCCAUGGAAACUAGGAGCACCAUUUCGCUGCCAGUGAAGAAAUGAACAGAGAAAAUCUGGGCCAGGCAGGCAUCAAAAGAAAUAGUCUGGCGCUCAACCAGAAAGUCUGUAAUCAUUUUAAGGGUA [A63G U103G], the self-cleavage was 0.01.

GUUAACGGUCAUAGGCCAUGGAAACUAGGAGCACCAUUUCGCUGCCAGUGAAGAAAUGAACAGAGAAAAUCUGGGCCAGGCAGGCAUCAAAAGAAAUAGUCUUGCGCUCAACCAGAAAGUCUGUAAUCAGUUUAAGGGUA [A63G U130G]: the self-cleavage stood at 1.92.

Turning to GUUAACGGUCAUAGGCCAUGGAAACUAGGAGCACCAUUUCGCUGCCAGUGAAGAAAUGAACAGAGAAAAUCUGGGCCAGGCAGGCAUCAAAAGAAAUAGUCUUGCGCUCAACCAGAAAGUCUGUAAUCACUUUAAGGGUA [A63G U130C], the self-cleavage turned out to be 1.13.

As for GUUAACGGUCAUAGGCCAUGGAAACUAGGAGCACCAUUUCGCUGCCAGUGAAGAAAUGAACAGAGAAAAUCUGGGCCAGGCAGGCAUCAAAAGAAAUAGUCUUGCGCUCAACCAGAGAGUCUGUAAUCAUUUUAAGGGUA [A63G A117G], the self-cleavage turned out to be 1.69.

As to GUUAACGGUCAUAGGCCAUGGAAACUAGGAGCACCAUUUCGCUGCCAGUGAAGAAAUGAACAGAGAAAAUCUGGGCCAGGCAGGCAUCAAAAGAAACAGUCUUGCGCUCAACCAGAAAGUCUGUAAUCAUUUUAAGGGUA [A63G U97C], the self-cleavage is 2.55.

Turning to GUUAACGGUCAUAGGCCAUGGAAACUAGGAGCACCAUUUCGCUGCCAGUGAAGAAAUGAACAGAGAAAAUCUGGGCCAGGCAGGUAUCAAAAGAAAUAGUCUUGCGCUCAACCAGAAAGUCUGUAAUCAUUUUAAGGGUA [A63G C85U], the self-cleavage came to 1.21.

As for GUUAACGGUCAUAGGCCAUGGAAACUAGGAGCACCAUUUCGCUGCCAGUGAAGAAAUGAACAGAGAAAAUCUGGGCCAGGCAGGCAUCAAAAGAAAUAGUCUUGCGUUCAACCAGAAAGUCUGUAAUCAUUUUAAGGGUA [A63G C107U], the self-cleavage stood at 0.01.

Turning to GUUAACGGUCAUAGGCCAUGGAAACUAGGAGCACCAUUUCGCUGCCAGUGAAGAAAUGAACAGAGAAAAUCUGGGCCAGGCAGGCAUCAAAAGAAAUAGUCUUGCGGUCAACCAGAAAGUCUGUAAUCAUUUUAAGGGUA [A63G C107G], the self-cleavage is 0.01.

In the case of GUUAACGGUCAUAGGCCAUGGAAACUAGGAGCACCAUUUCGCUGCCAGUGAAGAAAUGAACAGAGAAAAUCUGGGCCAGGCAGGCAGCAAAAGAAAUAGUCUUGCGCUCAACCAGAAAGUCUGUAAUCAUUUUAAGGGUA [A63G U87G], the self-cleavage is 1.35.

Turning to GUUAACGGUCAUAGGCCAUGGAAACUAGGAGCACCAUUUCGCUGCCAGUGAAGAAAUGAACAGAGAAAAUCUGGGCCAGGCAGGCAUCAAAAGAAAUAGUCUUGCGCUCAACCAGAAAGUCUGUAGUCAUUUUAAGGGUA [A63G A126G], the self-cleavage stood at 1.13.

For the variant GUUAACGGUCAUAGGCCAUGGAAACUAGGAGCACCAUUUCGCUGCCAGUGAAGAAAUGAACAGAGAAAAUCUGGGCCAGGCAGGCAUCAAAAGAAAUAGUCUUGCGCUCAACCAGAAAGUCUGUAUUCAUUUUAAGGGUA [A63G A126U], the self-cleavage is 0.57.

GUUAACGGUCAUAGGCCAUGGAAACUAGGAGCACCAUUUCGCUGCCAGUGAAGAAAUGAACAGAGAAAAUCUGGGCCAGGCAGGCAUCAAAAGAAAUAGUCUUGCGCUCAACCAGAAAGUCUGUCAUCAUUUUAAGGGUA [A63G A125C]: the self-cleavage was 1.23.

Take GUUAACGGUCAUAGGCCAUGGAAACUAGGAGCACCAUUUCGCUGCCAGUGAAGAAAUGAACAGAGAAAAUCUGGGCCAGGCAGGCAUCAAAAGAAAUAGUCUUGCGCUCAACCAGAAAGUCUGUAAUCAUUUUAAGGGUG [A63G A140G]: the self-cleavage came out at 2.02.

Turning to GUUAACGGUCAUAGGCCAUGGAAACUAGGAGCACCAUUUCGCUGCCAGUGAAGAAAUGAACAGAGAAAAUCUGGGCCAGGCAGGCAUCAAAAGAAAUAGUCUUGCGCUCAACCAGAAAGUCUGUAAUCAUUUUAAGGGUU [A63G A140U], the self-cleavage came out at 1.52.

Consider GUUAACGGUCAUAGGCCAUGGAAACUAGGAGCACCAUUUCGCUGCCAGUGAAGAAAUGAACAGAGAAAAUCUGGGCCAGGCAGGCAUCAAAAGAAAUAGUCUUGCGCUCAUCCAGAAAGUCUGUAAUCAUUUUAAGGGUA [A63G A111U], for which the self-cleavage came to 0.18.

As to GUUAACGGUCAUAGGCCAUGGAAACUAGGAGCACCAUUUCGCUGCCAGUGAAGAAAUGAACAGAGAAAAUCUGGGCCAGGCAGGCAUCAAAAGAAAUAGUCUUGCGCUCAACCAGCAAGUCUGUAAUCAUUUUAAGGGUA [A63G A116C], the self-cleavage was 0.13.

For GUUAACGGUCAUAGGCCAUGGAAACUAGGAGCACCAUUUCGCUGCCAGUGAAGAAAUGAACAGAGAAAAUCUGGGCCAGGCAGGCAUCAAAAGAAAUAGUCUUGCGCUCAACCAGUAAGUCUGUAAUCAUUUUAAGGGUA [A63G A116U], the self-cleavage was 0.57.

In the case of GUUAACGGUCAUAGGCCAUGGAAACUAGGAGCACCAUUUCGCUGCCAGUGAAGAAAUGAACAGAGAAAAUCUGGGCCAGGCAGGCAUCAAAAGAAAUAAUCUUGCGCUCAACCAGAAAGUCUGUAAUCAUUUUAAGGGUA [A63G G99A], the self-cleavage is 0.76.

For GUUAACGGUCAUAGGCCAUGGAAACUAGGAGCACCAUUUCGCUGCCAGUGAAGAAAUGAACAGAGAAAAUCUGGGCCAGGCAGGCAUCAAAAGAAAUAGUCUUGCGCUCAACCAGAAAGUCUGUAAGCAUUUUAAGGGUA [A63G U127G], the self-cleavage came out at 2.41.

For the variant GUUAACGGUCAUAGGCCAUGGAAACUAGGAGCACCAUUUCGCUGCCAGUGAAGAAAUGAACAGAGAAAAUCUGGGCCAGGCAGGCAUCAAAAGAAAUAGUCUUGCUCUCAACCAGAAAGUCUGUAAUCAUUUUAAGGGUA [A63G G106U], the self-cleavage is 0.02.

For the variant GUUAACGGUCAUAGGCCAUGGAAACUAGGAGCACCAUUUCGCUGCCAGUGAAGAAAUGAACAGAGAAAAUCUGGGCCAGGCAGGCAUCAAAAGAAAUAGUCUUGCGCUCAACCAGAAAGUCUGUAAUCAUUUUGAGGGUA [A63G A134G], the self-cleavage came to 1.47.

As for GUUAACGGUCAUAGGCCAUGGAAACUAGGAGCACCAUUUCGCUGCCAGUGAAGAAAUGAACAGAGAAAAUCUGGGCCAGGCAGGCAUCAAAAGAAAUAGUCUUGCGCUAAACCAGAAAGUCUGUAAUCAUUUUAAGGGUA [A63G C109A], the self-cleavage is 0.55.

For GUUAACGGUCAUAGGCCAUGGAAACUAGGAGCACCAUUUCGCUGCCAGUGAAGAAAUGAACAGAGAAAAUCUGGGCCAGGCAGGCAUCAAAAGAAAUAGUCUUGCGCUUAACCAGAAAGUCUGUAAUCAUUUUAAGGGUA [A63G C109U], the self-cleavage worked out at 0.69.

Take GUUAACGGUCAUAGGCCAUGGAAACUAGGAGCACCAUUUCGCUGCCAGUGAAGAAAUGAACAGAGAAAAUCUGGGCCAGGCAGGCAUCAAAAGAAAUAGUAUUGCGCUCAACCAGAAAGUCUGUAAUCAUUUUAAGGGUA [A63G C101A]: the self-cleavage is 0.32.

For the variant GUUAACGGUCAUAGGCCAUGGAAACUAGGAGCACCAUUUCGCUGCCAGUGAAGAAAUGAACAGAGAAAAUCCGGGCCAGGCAGGCAUCAAAAGAAAUAGUCUUGCGCUCAACCAGAAAGUCUGUAAUCAUUUUAAGGGUA [A63G U72C], the self-cleavage worked out at 0.27.

On to GUUAACGGUCAUAGGCCAUGGAAACUAGGAGCACCAUUUCGCUGCCAGUGAAGAAAUGAACAGAGAAAAUCAGGGCCAGGCAGGCAUCAAAAGAAAUAGUCUUGCGCUCAACCAGAAAGUCUGUAAUCAUUUUAAGGGUA [A63G U72A], for which the self-cleavage is 0.33.

Take GUUAACGGUCAUAGGCCAUGGAAACUAGGAGCACCAUUUCGCUGCCAGUGAAGAAAUGAACAGAGAAAAACUGGGCCAGGCAGGCAUCAAAAGAAAUAGUCUUGCGCUCAACCAGAAAGUCUGUAAUCAUUUUAAGGGUA [A63G U70A]: the self-cleavage was found to be 1.47.

On to GUUAACGGUCAUAGGCCAUGGAAACUAGGAGCACCAUUUCGCUGCCAGUGAAGAAAUGAACAGAGAAAAGCUGGGCCAGGCAGGCAUCAAAAGAAAUAGUCUUGCGCUCAACCAGAAAGUCUGUAAUCAUUUUAAGGGUA [A63G U70G], for which the self-cleavage was 1.56.

Consider GUUAACGGUCAUAGGCCAUGGAAACUAGGAGCACCAUUUCGCUGCCAGUGAAGAAAUGAACAGAGAAAACCUGGGCCAGGCAGGCAUCAAAAGAAAUAGUCUUGCGCUCAACCAGAAAGUCUGUAAUCAUUUUAAGGGUA [A63G U70C], for which the self-cleavage is 1.08.

Turning to GUUAACGGUCAUAGGCCAUGGAAACUAGGAGCACCAUUUCGCUGCCAGUGAAGAAAUGAACAGAGAAAAUCUGGGCCAGGCAGGCAUCAAAAGAAAUAGUCUUGCGCUCUACCAGAAAGUCUGUAAUCAUUUUAAGGGUA [A63G A110U], the self-cleavage worked out at 1.88.

As for GUUAACGGUCAUAGGCCAUGGAAACUAGGAGCACCAUUUCGCUGCCAGUGAAGAAAUGAACAGAGAAAAUCUGGGCCAGGCAGGCAUCAAAAGAAAUAGUCUUGCGCUCCACCAGAAAGUCUGUAAUCAUUUUAAGGGUA [A63G A110C], the self-cleavage came to 0.38.

As to GUUAACGGUCAUAGGCCAUGGAAACUAGGAGCACCAUUUCGCUGCCAGUGAAGAAAUGAACAGAGAAAAUCUGGGCCAGGCAGGCAUCAAAAGAAAUAGUCUUGCGCUCGACCAGAAAGUCUGUAAUCAUUUUAAGGGUA [A63G A110G], the self-cleavage was 0.15.

As for GUUAACGGUCAUAGGCCAUGGAAACUAGGAGCACCAUUUCGCUGCCAGUGAAGAAAUGAACAGAGAAAAUCUGGGCCAGGCAGGCAUCAAAAGAAAUAGUCAUGCGCUCAACCAGAAAGUCUGUAAUCAUUUUAAGGGUA [A63G U102A], the self-cleavage is 1.39.

For GUUAACGGUCAUAGGCCAUGGAAACUAGGAGCACCAUUUCGCUGCCAGUGAAGAAAUGAACAGAGAAAAUCUGGGCCAGGCAGGCAUCAAAAGAAAUAGUCGUGCGCUCAACCAGAAAGUCUGUAAUCAUUUUAAGGGUA [A63G U102G], the self-cleavage amounted to 0.54.

Consider GUUAACGGUCAUAGGCCAUGGAAACUAGGAGCACCAUUUCGCUGCCAGUGAAGAAAUGAACAGAGAAAAUCUGGGCCAGGCAGGCAUCAAAAGAAAUAGUCCUGCGCUCAACCAGAAAGUCUGUAAUCAUUUUAAGGGUA [A63G U102C], for which the self-cleavage turned out to be 1.43.
